The values that follow come from the DeepSol protein solubility set.

The nature of this data set: soluble on expression in E. coli; label from the status in PepcDB or PDB records.
Regarding “NFLDFEKPIVELETKIQALRDVSRHSTSASVDLDKELEQLEKKSLELKKKIFSDLGAWQVAQLARHPQRPYTLDYLKHIFTEFDELAGDRAYADDKAIVGGIARLEGRSVMVIGHQKGRETREKVKRNFGMPKPEGYRKALRLMEMAERFNM”, the “soluble on expression in E. coli” value was “not soluble”. Turning to “MSLKQEKERILKLVEEGKLTAQEALTLIEKLDSDYKEKEEKITALSVHVHDEEEPFTTAKKESGKPSLGAKLFDWIDSAVKKVKEVDLDLNFGHAYDVQHIFQFKDTDFSSVELQIANGSVNIVPWEDDDIRAECQAKVYRADSQDAARHAFLQHIECEIKGNKFFIRTEKKTMKTNVTLYIPQKEYDKIRVKLFNGPVRGEHLHVKEFSAKTTNGVLSFSYLTAEKAIAETANGQIKLASHSCGTIEAETINGLIDLRGKSESIDVQSFNGNIAINVTESDCRSIYAKTTTGNVELAIPDDLAVKAELKSNLGTLSHELMDVEMLKEKNDTIQKEMMFTSNQAHDQNITVFSESLTGAIKLKYSQREGGSHHHHHH”, the “soluble on expression in E. coli” value is recorded as “soluble”. For the sequence “MSLDNLALRMRPKTIDQVIGQEHLVGPGKIIRRMVEANRLSSMILYGPPGIGKTSIASAIAGTTKYAFRTFNATVDSKKRLQEISEEAKFSGGLVLLLDEIHRLDKTKQDFLLPLLESGLVIMIGATTENPFFSVTPAIRSRVQIFELEPLSNQDVKEALQIALSNPERGFDFPIELDEDALDFIATSTNGDLRSAFNSLDLAVLSTPENDEGIRHITLDIMENSLQRSYITMDKDGDGHYDVLSALQKSIRGSDVDASLHYTARLIEAGDLPSLARRLTVIAYEDIGLANPEAQIHTVTALDAAQKIGFPEARILIANVVIDLALSPKSNSAYVAMDKALADLKTSGHLPIPRHLRDGHYSGSKELGNAQDYLYPHNYPGNWVKQDYLPEKIRNHHYFQAEDTGKYERALAQRKEAIDRLREGHHHHHH”, the “soluble on expression in E. coli” value was “soluble”. Regarding “MGSDKIHHHHHHMHTFLASSSMQLSVPPNHFQSMKIVALGDSLIYGFGDPEKGGWIEQLRRWWMLPDSAGHVLYNLGVRGDRTQQVAQRLEVEFRHRGELRNRVPDLIILSVGVNDSARLARPDGRSYTDFTLFEKEIATLLDLAQQLCPVLFVGMVPVDEAKMPFLDCFYYNHVDQYRYKEATRLACTKRQIPYLDIFEKWMERGENWRLKRLSEDGLHPNTLGYQALLEDVINWDAIHSVGFANAAYHSQFNYHLKQS”, the “soluble on expression in E. coli” value is given as “not soluble”.

For the sequence “MSLKYPGFLYLNDIHIDLSYNPKSNKDWCHSQTNNLLESWEFGQYNCDPPPKLYDSLVESLKTNVPSVDFILLGGDLPSHDLGGNYTFLKEHFRLITDPLEKLYPNKKIFITLGNNDFQENYGSFKTDLKDFENAHEVFGKWMNEEQSKTFKKGGYYYEDMPELKLRLLLLNTVMYTNTKSRVFNESLKDPYDQFAWIRQTYKEGVDKGYKVGVALHVPPGIVYYKGIPGFPSMYLEEFGKVFEECDFSFTISGHSHIDTLNPLYKANVEEDNIQYSLSAVSVSPSHYNNPGYRYFEIKDGVLQDYTQFYADIMMNPDSPKWEVEYKFRDAYKVKDLSKKSLNDATRYIRSKGSVIWSYRGYIYSQAEKYNPFFYCALRALTKEDVFKCSLDLNVNLSSEGHHHHHH”, the “soluble on expression in E. coli” value is given as “soluble”. As for “MAEEPYVFTLKKRNNDDAEDDWDRYSENVRPTRRGRKIDALKRNVEEVVTEETARLKLDQLLEELQNLECSEESEELQKILDFCSWFEEKLAIGFHKVYYELLWKIISRHGFLEKYKEDERMLKIWEKMADNSAGHAHDIYQFAISRKSLVKCAALYARWSQSVELAGAYVEARRVLILARTNCAVPIQIVNDAEDALEMREMRRHLQERDSDDDEEEEETRKAFTNLPVIGDNHTVPIVRLPSMCSDTTKKAMKFDTGNVERVNPVCKDNQMQPFEVLSYTDADDVEYLRNVHELHAHIERYAIKETTNPSITGSSTSEAAAVTIYPVSSSEFEVWTVEGSGPTKAKARMAIKRVFKDLSFEEYAASLLPNHPSMVRATAKKLDFDETL”, the “soluble on expression in E. coli” value is “not soluble”. “MAGQIETRQFRTLFISDVHLGSKAAKTDFLLDFLKYHEAETIIMVGDIVDGWRLRRSWYWPQGCNDVVQKLLRKARKGTRIVYIPGNHDEFLREFPGMHFGGIEVAERMIHEAADGKKYLVIHGDEFDVVVRNARLLAYLGDWAYDAAIAINIAIAAVRRRIGLPYWSFSAWAKLQVKHAVNFIGEFQRVVADEARRNNVDGVICGHIHHAIMEDMDGIRYINTGDWVESCTAIAENADGSFELITWMQTSEATAEHASDEMEPVNIPGLIGKHAA”: the “soluble on expression in E. coli” value is recorded as “not soluble”. For the sequence “GPGSMLAAVAVPSSSSSTAPGTNTAVSDYFLQKIHELRATQKRTLDNFERLEAQRNDLNRRVRHLKEEVQMLQESGSLVVDVVRVMGKNKVLVKAGSGQGKMVVDVDKSVDFKDLTPNARVALRSGTSAIHYILPTKVDPLVSLMKVEKAGKESTYDEIGGLSRQVKEIKEVIELPVKHPKLFEALGIEQPKGVLLYGPPGTGKTLLARAVAHHTDCTFIRVSGAELVQKYIGEGARMVRELFVMAREHSPSIIFMDEIDSIGSSRLESGENGDSEVQRTMLELLNQLDGFEASKNIKVIMATNRMDILDEALLRPGRIDRKIEFPAPDEAARFEILKIHSRKMNLTRGIDLKDIAKKTSNCSGAELKAVCTEAGMFALRERRVHITHEDFVLAVAKVMHKDQDKNVSLKKMWK”, the “soluble on expression in E. coli” value is “not soluble”.

For “MLKSVQGLWKDFFGIRDDGRKREYGSLDEVRKRSALRSRRKQMRPTGKSVLKRPRKVTDRKTEEKIRTNRRKTPKRRLTKIFQTIRDVFSNDNENMSKMQNVCGDMTRILKKRSQGRPSYMDTDTAKSRILRSDAFKRKISELKYNKQRISELRSGSSDGSSGKDRNQSLYLDREILLQRQIKKRDEKIKALESKLQSLQEALNYSNEKYRILEDLLDSSNIHPSYTKSRRTMSNLARENDEIKPLKIDLSPSPIRRTNSLFTSSPMKTYNRDGNIPEMQPLQENISPACPTPPYRSRETEKEDETLSPISVDFSSYLS”, the “soluble on expression in E. coli” value is listed as “soluble”. Consider “MGSDKIHHHHHHMASIALNNLTYTYPQASTPILDRVNLTLPRQSFILLTGPSGTGKSTLLKLIAGLLPLTPDDGTITFDGQALTASTANQRAQHVAMMFQNPNQQFAMDTVENELIFALENLQVPRDQIPARLLSALDFVGIRNLQSRLLNHLSGGEKQKVALAIIVAMDSDVILLDEPFASVDPTARAVLLDRLVELRNQHGKTIILADHDLSGYEQLVDQVVQIKDQHLQLIDRTTWSELFSAFTEQPQRSWSAPQRVERPCFQLDHVTLQAGDRQLLVPTTRQLLAQHNTLITGPNGSGKSTLFEALVRLHPYTGEIRYEGTPIDKLKRKRYARHVALLFQDAETQFLNITVAEELAQSKRYAYGDYFTADRIQTALVQLNLSGRDEQVIYTLSEGQKKKLQILLMLIMQSPVLLMDEPLKGLDLHSINALVALLQTTQAATKQTLIIISHQLTGLMPLIDYQLHFENHHLDWVVRS”, for which the “soluble on expression in E. coli” value is reported as “not soluble”.

With “MNCWMRSPRWPPTTDGSNSSQWVTPCSQMDRSVFSPTPSVPMKLFSTRTLSGTGWAVCKPVGATGVVKGLQRVRLAGLRPAHREDIAIHELVFQRDDDGAIAVCTRRLRLVERLLAKRTDEHRHTGWMGVGHIHRWGAVNECSLAIRMRWLRAPDYVYNTPRCAQLLTSESTKPNGTHGHTMTTFLLATSSVHVTAAAADYLQHRLDSAADHDIVVVAVHDPDAPSRDAGDAVNVARSRLAAFMPATETRDGAPVTEILAAVDEHDPDELLIGPHRGTDDSDGVGSMARDLLTNVDRPVIVLPLP”, the “soluble on expression in E. coli” value is reported as “not soluble”.

For the sequence “MGHHHHHHSHMSETSFNLISEKCDILSILRDHPENRIYRRKIEELSKRFTAIRKTKGDGNCFYRALGYSYLESLLGKSREIFKFKERVLQTPNDLLAAGFEEHKFRNFFNAFYSVVELVEKDGSVSSLLKVFNDQSASDHIVQFLRLLTSAFIRNRADFFRHFIDEEMDIKDFCTHEVEPMATECDHIQITALSQALSIALQVEYVDEMDTALNHHVFPEAATPSVYLLYKTSHYNILYAADKH”, the “soluble on expression in E. coli” value is given as “soluble”. The entry for “MGSDKIHHHHHHMMTEMQQRAQLHRQIWKIADEVRGAVDGWDFKQYVLGTLFYRFISENFTDYMQAGDSSIDYAAMPDSIITPEIKDDAVKVKGYFIYPGQLFCNIAAEAHQNEELNTKLKEIFTAIESSASGYPSEQGIKGLFDDFDTTSSRLGSTVADKNKRLAAVLKGVAELDFGNFEDHRIDLFGDAYEYLISNYAANAGKSGGEFFTPQSVSKLIARLAVHGQEKVNKIYDPACGSGSLLLQAKKQFDEHIIEEGFFGQEINHTTYNLARMNMFLHNVNYNKFHIELGDTLTNPKLKDSKPFDAVVSNPPYSIDWIGSDDPTLINDDRFAPAGVLAPKSKADFAFILHALNYLSGRGRAAIVSFPGIFYRGGAEQKIRQYLVEGNYVETVIALAPNLFYGTCIAVNILVLSKHKDNTDIQFIDASGFFKKETNNNVLTEEHIAEIVKLFADKADVPHIAQNAAQQTVKDNGYNLAVSSYVEAEDTREVIDIRQLNAEISETVAKIERLRREIDEVIAEIET” is “not soluble”.

“MSDDEDEGRLQIDESPSDSEDKPSISAPPPLPPPLQETPEFQTTYDAHDQAETSGKEDGELDEDDENDDIEPMEIDEEIQLEIDEKPEDLVKDEQISEPTDKMREEFLKVEKTDENAVVESTSSFSPKLIDEQDLKVEEMSDEKHAQSPVSSDMTTSKSPTPSKKENGLMKPPQSTEKAQRKRKESTDIFSSEKRKLSLETVASSSSSSGSSNLSTTPQRSKRSSSHMATIAISACFTDEDIVSVPMMPIQKTPDTAPHSKRAKRDIGTNVITTRSTDTSGLLCNEAIMDTPPGSQMTLEVTVMYRTKNSLAFRVKGCDLIGFIGDGLPPMASSLTNNIASSMGNNNNKKKTASSSGNEEGKDGRSSSASSNGRGARGGSVLKDGKGDKQKGKRKKEETNDDDLEDENQNNEQYGSKKCELVEVDVAQLHDCHYDGCEKRFQKTTDLEYHISKNHKRRVMMYESICTQTSISSLETQNNSTQIDDDLPPMPQMPILKKEVPIKTPIGNVYEDLSDDDSETKPTDLVLKTPSSSASSAVATLMGIAQVSSSTTSATTSVVPPVGAQRSTPATPVSAKIGINPSMVANALAEKNKQQQQQQQKLNQLQPPHNPSLSTAPSSSSAQPPTMIQAHPMAGVFIPPPFHPAMMNPQMAAMMDQQRIAVAMSQQQQMSRTPSRQTISVSDSHKIHELAKSRENQQRQQSATPKTPSESVSTTGVVTPQRQFLPPQMMQPGTPQSILLQQQQQQQQQQQQAAAQHQIIQQMQMQMQRGMAPQMANQELLMMMMGMPHMVQGVPGFPGVPQLPPK”: the “soluble on expression in E. coli” value is “soluble”. Consider “MGSDKIHHHHHHMECTSYLVDTFDQLPPINEESLADIDNDLFSGLYYGGVDTPTTRQLSQRVADLEKGKFAVLTPSGQSAFNLLLTTFVKPGDHVLAGDTIVYSTRWLLNHFENIGVKIEYFTPSEAATLKNKLTLKTKLIIFENPGAFTYEVMDISAIVESRHDHPALIVADNTWAASLFHHPLSLGADISLISMSKYHGAVEGISLGALITKRKDLYVNLKTTSALTGNHVSSHACSAAIRSISTLGARLSFQMSTTRKVLRSLKPLPLLKQAIHPILQNTELHLQNSMIYGFNSLFTAEFSCSRNELISRLNRLNLIKIGYGWGGTTSLVNLIDTHDMPSAKRLGINSECARIYLGLEDPDELTRDLTNAFTQ”, for which the “soluble on expression in E. coli” value is recorded as “not soluble”.

As to “LKSLKDVTDHKKVNANDEDYKYIDMWKRLYQGHYAEWHNLNYEHNGNPVNRRQLSMNLPKVTAKYMSKLLFNEKVKINIDDKAAEEFVLNVLKTNGFTKNMERYIEYGEAMGGFVIKVYHDGNKNVKISFATADCMYPLSNDSENVDECVIANSFHKNNKYYKLLEWNEWKGKEEKVYTITTELYQSDNPDELGGEVSLKLLFNDIEPVVPLPPLTRPTFIYIKPNIANNKNLTSPLGISIYANALDTLKTLDLMFDSYYQEFKLGKKKVLVPSSFVKTAVNLDGSTTQYFDSTDEAFFLYQGDQDADGKSVKDISVEIRSTEFIESINAMLRIYAMQVGLSAGTFTFDENGLKTATEVVSEKSETYQTKNSHSQLIEQGIKEMIVSILEVGKFIEAYSGDVVELDTITVDFDDSIAQDEDTTINRYTTAKNQGMIPLKIALQRAWNITDAEAEEWKEEIEKDARAEIPG”, the “soluble on expression in E. coli” value was “not soluble”.
